Sequences and labels used below:
B1: N-terminal GST-fused wild-type PREP1 [not stated] / PBX1_(1-430), wild-type recombinant [human] (parent complex)
chain 1: MMATQTLSIDSYQDGQQMQVVTELKTEQDPNCSEPDAEGVSPPPVESQTPMDVDKQAIYRHPLFPLLALLFEKCEQSTQGSEGTTSASFDVDIENFVRKQEKEGKPFFCEDPETDNLMVKAIQVLRIHLLELEKVNELCKDFCSRYIACLKTKMNSETLLSGEPGSPYSPVQSQQIQSAITGTISPQGIVVPASALQQGNVAMATVAGGTVYQPVTVVTPQGQVVTQTLSPGTIRIQNSQLQLQLNQDLSILHQDDGSSKNKRGVLPKHATNVMRSWLFQHIGHPYPTEDEKKQIAAQTNLTLLQVNNWFINARRRILQPMLDSSCSETPKTKKKTAQNRPVQRFWPDSIASGVAQPPPSELTMSEGAVVTITTPVNMNVDSLQSLSSDGATLAVQQVMMAGQSEDESVDSTEEDAGALAPAHISGLVLENSDSLQ
chain 2: MDEQPRLMHSHAGVGMAGHPGLSQHLQDGAGGTEGEGGRKQDIGDILQQIMTITDQSLDEAQARKHALNCHRMKPALFNVLCEIKEKTVLSIRGAQEEEPTDPQLMRLDNMLLAEGVAGPEKGGGSAAAAAAAAASGGAGSDNSVEHSDYRAKLSQIRQIYHTELEKYEQACNEFTTHVMNLLREQSRTRPISPKEIERMVSIIHRKFSSIQMQLKQSTCEAVMILRSRFLDARRKRRNFNKQATEILNEYFYSHLSNPYPSEEAKEELAKKCGITVSQVSNWFGNKRIRYKKNIGKFQEEANIYAAKTAVTATNVSAHGSQANSPSTPNSAGSSSSFNMSNSGDLFMSVQSLNGDSYQGAQVGANVQSQVDTLRHVISQTGGYSDGLAASQMYSPQGISANGGWQDATTPSSVTSPTEGPGSVHSDTSN

Variants of B1 are the subject of one assay. Nature of the assay: TR-FIA; parent: 1; read off a plot.
Take chain 1 MMATQTLSIDSYQDGQQMQVVTELKTEQDPNCSEPDAEGVSPPPVESQTPMDVDKQAIYRHPLFPLLALLFEKCEQSTQGSEGTTSASFDVDIENFVRKQEKEGKPFFCEDPETDNAMVKAIQVLRIHLLELEKVNELCKDFCSRYIACLKTKMNSETLLSGEPGSPYSPVQSQQIQSAITGTISPQGIVVPASALQQGNVAMATVAGGTVYQPVTVVTPQGQVVTQTLSPGTIRIQNSQLQLQLNQDLSILHQDDGSSKNKRGVLPKHATNVMRSWLFQHIGHPYPTEDEKKQIAAQTNLTLLQVNNWFINARRRILQPMLDSSCSETPKTKKKTAQNRPVQRFWPDSIASGVAQPPPSELTMSEGAVVTITTPVNMNVDSLQSLSSDGATLAVQQVMMAGQSEDESVDSTEEDAGALAPAHISGLVLENSDSLQ [chain 1 L117A]: the ratio to parent is ~0.48.

Turning to chain 1 MMATQTLSIDSYQDGQQMQVVTELKTEQDPNCSEPDAEGVSPPPVESQTPMDVDKQAIYRHPLFPLLALLFEKCEQSTQGSEGTTSASFDVDIENFVRKQEKEGKPFFCEDPETDNLMVKAIQVLRIHLLELEKVNELCKDFCSRYIACLKTKMNSETLLSGEPGSPYSPVQSQQIQSAITGTISPQGIVVPASALQQGNVAMATVAGGTVYQPVTVVTPQGQVVTQTLSPGTIRIQNSQLQLQLNQDASILHQDDGSSKNKRGVLPKHATNVMRSWLFQHIGHPYPTEDEKKQIAAQTNLTLLQVNNWFINARRRILQPMLDSSCSETPKTKKKTAQNRPVQRFWPDSIASGVAQPPPSELTMSEGAVVTITTPVNMNVDSLQSLSSDGATLAVQQVMMAGQSEDESVDSTEEDAGALAPAHISGLVLENSDSLQ [chain 1 L249A], the ratio to parent is ~0.96.

In the case of chain 1 MMATQTLSIDSYQDGQQMQVVTELKTEQDPNCSEPDAEGVSPPPVESQTPMDVDKQAIYRHPAFPAAALAFEKCEQSTQGSEGTTSASFDVDIENFVRKQEKEGKPFFCEDPETDNLMVKAIQVLRIHLLELEKVNELCKDFCSRYIACLKTKMNSETLLSGEPGSPYSPVQSQQIQSAITGTISPQGIVVPASALQQGNVAMATVAGGTVYQPVTVVTPQGQVVTQTLSPGTIRIQNSQLQLQLNQDLSILHQDDGSSKNKRGVLPKHATNVMRSWLFQHIGHPYPTEDEKKQIAAQTNLTLLQVNNWFINARRRILQPMLDSSCSETPKTKKKTAQNRPVQRFWPDSIASGVAQPPPSELTMSEGAVVTITTPVNMNVDSLQSLSSDGATLAVQQVMMAGQSEDESVDSTEEDAGALAPAHISGLVLENSDSLQ [chain 1 L63A, chain 1 L66A, chain 1 L67A, chain 1 L70A], the ratio to parent is ~0.58.

As to chain 1 MMATQTLSIDSYQDGQQMQVVTELKTEQDPNCSEPDAEGVSPPPVESQTPMDVDKQAIYRHPLFPLAALLFEKCEQSTQGSEGTTSASFDVDIENFVRKQEKEGKPFFCEDPETDNLMVKAIQVLRIHLLELEKVNELCKDFCSRYIACLKTKMNSETLLSGEPGSPYSPVQSQQIQSAITGTISPQGIVVPASALQQGNVAMATVAGGTVYQPVTVVTPQGQVVTQTLSPGTIRIQNSQLQLQLNQDLSILHQDDGSSKNKRGVLPKHATNVMRSWLFQHIGHPYPTEDEKKQIAAQTNLTLLQVNNWFINARRRILQPMLDSSCSETPKTKKKTAQNRPVQRFWPDSIASGVAQPPPSELTMSEGAVVTITTPVNMNVDSLQSLSSDGATLAVQQVMMAGQSEDESVDSTEEDAGALAPAHISGLVLENSDSLQ [chain 1 L67A], the ratio to parent was ~0.65.

For the variant chain 1 MMATQTLSIDSYQDGQQMQVVTELKTEQDPNCSEPDAEGVSPPPVESQTPMDVDKQAIYRHPLFPLLALLFEKCEQSTQGSEGTTSASFDVDIENFVRKQEKEGKPFFCEDPETDNLMVKAAQVLRIHLLELEKVNELCKDFCSRYIACLKTKMNSETLLSGEPGSPYSPVQSQQIQSAITGTISPQGIVVPASALQQGNVAMATVAGGTVYQPVTVVTPQGQVVTQTLSPGTIRIQNSQLQLQLNQDLSILHQDDGSSKNKRGVLPKHATNVMRSWLFQHIGHPYPTEDEKKQIAAQTNLTLLQVNNWFINARRRILQPMLDSSCSETPKTKKKTAQNRPVQRFWPDSIASGVAQPPPSELTMSEGAVVTITTPVNMNVDSLQSLSSDGATLAVQQVMMAGQSEDESVDSTEEDAGALAPAHISGLVLENSDSLQ [chain 1 I122A], the ratio to parent was ~0.79.

chain 1 MMATQTLSIDSYQDGQQMQVVTELKTEQDPNCSEPDAEGVSPPPVESQTPMDVDKQAIYRHPLFPLLAALFEKCEQSTQGSEGTTSASFDVDIENFVRKQEKEGKPFFCEDPETDNLMVKAIQVLRIHLLELEKVNELCKDFCSRYIACLKTKMNSETLLSGEPGSPYSPVQSQQIQSAITGTISPQGIVVPASALQQGNVAMATVAGGTVYQPVTVVTPQGQVVTQTLSPGTIRIQNSQLQLQLNQDLSILHQDDGSSKNKRGVLPKHATNVMRSWLFQHIGHPYPTEDEKKQIAAQTNLTLLQVNNWFINARRRILQPMLDSSCSETPKTKKKTAQNRPVQRFWPDSIASGVAQPPPSELTMSEGAVVTITTPVNMNVDSLQSLSSDGATLAVQQVMMAGQSEDESVDSTEEDAGALAPAHISGLVLENSDSLQ [chain 1 L69A]: the ratio to parent was ~1.1.

Regarding chain 1 MMATQTLSIDSYQDGQQMQVVTELKTEQDPNCSEPDAEGVSPPPVESQTPMDVDKQAIYRHPLFPLLALLFEKCEQSTQGSEGTTSASFDVDIENFVRKQEKEGKPFFCEDPETDNLMVKAIQALRIHLLELEKVNELCKDFCSRYIACLKTKMNSETLLSGEPGSPYSPVQSQQIQSAITGTISPQGIVVPASALQQGNVAMATVAGGTVYQPVTVVTPQGQVVTQTLSPGTIRIQNSQLQLQLNQDLSILHQDDGSSKNKRGVLPKHATNVMRSWLFQHIGHPYPTEDEKKQIAAQTNLTLLQVNNWFINARRRILQPMLDSSCSETPKTKKKTAQNRPVQRFWPDSIASGVAQPPPSELTMSEGAVVTITTPVNMNVDSLQSLSSDGATLAVQQVMMAGQSEDESVDSTEEDAGALAPAHISGLVLENSDSLQ [chain 1 V124A], the ratio to parent is ~0.91.

Variants of B1 are the subject of another assay. As to the kind of experiment: ELISA; PBX1 0.5 µM (highest point of the titration); GST control signal subtracted; parent: 0.8; read off a plot. A general note: In an ELISA, binding on a coated surface is turned into a signal by an enzyme label.
chain 1 MMATQTLSIDSYQDGQQMQVVTELKTEQDPNCSEPDAEGVSPPPVESQTPMDVDKQAIYRHPAFPAAALAFEKCEQSTQGSEGTTSASFDVDIENFVRKQEKEGKPFFCEDPETDNLMVKAIQVLRIHLLELEKVNELCKDFCSRYIACLKTKMNSETLLSGEPGSPYSPVQSQQIQSAITGTISPQGIVVPASALQQGNVAMATVAGGTVYQPVTVVTPQGQVVTQTLSPGTIRIQNSQLQLQLNQDLSILHQDDGSSKNKRGVLPKHATNVMRSWLFQHIGHPYPTEDEKKQIAAQTNLTLLQVNNWFINARRRILQPMLDSSCSETPKTKKKTAQNRPVQRFWPDSIASGVAQPPPSELTMSEGAVVTITTPVNMNVDSLQSLSSDGATLAVQQVMMAGQSEDESVDSTEEDAGALAPAHISGLVLENSDSLQ [chain 1 L63A, chain 1 L66A, chain 1 L67A, chain 1 L70A]: the response was ~0.13 Abs, 495 nm.

These data come from publication PMC7545097, “Mapping the native interaction surfaces of PREP1 with PBX1 by cross-linking mass-spectrometry and mutagenesis” (Scientific Reports, 2020).
